Results published in US10731143B2, “Methods and compositions for stabilizing trans-splicing intein modified proteases” (AGRIVIDA, INC., priority 2014, dated 2020).

Columns and labels:
[1] = Formulation protocols and long term stability in 60% Detergent-1 under accelerated ageing; format: physicochemical; conditions: 1M KCl, sequential mixing of NI and IC into 60% Detergent-1
Procedure: FIG. 12 illustrates comparison of alternative protocols to detergent formulate NI and IC and evaluated formulations for long term stability. Two formulation protocols as follows were compared: 1) formulation by sequential mixing of unsalted NI and IC to the detergent (detergent+NI+IC) and 2) formulation of KCl stabilized (NI+IC) premix to detergent. Detergent-1 was used at 60% (v/v) in two formats, either without supplement (−), or KCl supplement was added to 1M final concentration (+). Purified NI and IC were each used at benchmarking conc. to 1% (v/v) Savinase, at 38.1 μmolar concentration each. (NI+IC) premix was prepared and formulated to the detergent essentially as described in Example 7. Formulations were stored at 37° C. under accelerated ageing conditions and storage stabilities were tested by assaying retention of dilution inducible iProtease activity over 8 weeks at t=0, 1, 3, 6 and 8 weeks in storage. Dilution inducible activity was assayed in sequential dilutions to assay buffer, from 40- to 5120-fold dilutions as described in Example 7. iProtease activities at the 2 min time point reads of the 1:1280-fold dilutions were normalized to dilution induced iProtease activity of the (NI+IC) premix in detergent without salt at t=0 and were plotted.

[2] = Protease activity of KCl stabilized (NI+IC) premix and Savinase assayed in KCl; format: biochemical; conditions: formulated to 1M KCl aqueous buffer, diluted in KCl
Procedure: iProtease activity was benchmarked to 1% (v/v) Savinase. Formulation of (NI+IC) and Savinase to 1M KCl aqueous buffer was the same as in Example 1, but enzyme activity was assayed in 2M KCl as follows: In a clear flat-bottomed half-volume 96 well plate, row A wells were preloaded with […] pH˜9.0, 50 μl 4 M KCl, and 35 μL H2O. Rows B-H were preloaded with 5 μl 1×BR buffer pH˜9.0, 25 μL 4 M KCl, and 20 μL H2O. 5 μl (NI+IC) formulation was added to row A, mixed by pipetting, then 50 μL of this 20× diluted sample was added to the 50 μl salt, buffer, and water in row B and mixed. […] This process of 2× serial dilutions was repeated for rows C-H. All samples were diluted an addition 2× by adding 50 μL 500 μM suc-FAAF-pNA (in 20% DMSO) substrate, yielding samples diluted from 40× in row A to 5120× in row H. Protease activity was assayed by reading absorbance at 400 nm at 30° C. FIGS. 9A-9B illustrate that KCl stabilized (NI+IC) premix has no enzyme activity. FIG. 9A illustrates iProtease activity of the 80-fold diluted (NI+IC) premix. […].

[3] = Stability of dilution inducible protease activity in three detergents under accelerated ageing; format: physicochemical; conditions: Savinase without the stabilizer (dialyzed), 37° C., up to 4 weeks
Procedure: Detergents were: Detergent-1, Detergent-2 and Detergent-3. For benchmarking 1% (v/v) Savinase was used, but instead of formulating the inhibitor stabilized form, the inhibitor was first removed by three steps of overnight dialysis of 0.5 mL Savinase against 5 L mTSB buffer at 4° C. using a Tube-O-Dialyzer Medi (4000 Da; GBiosciences). Volume of dialyzed Savinase in mTSB were adjusted to 1.5 mL, and 3 μL dialyzed aliquot treated with equal volume of 4M KCL was used to formulate 100 μL detergent to get 1% (v/v) of the Savinase. Sample handling was essentially the same as in Example 8, except that formulations were made to 65% detergents supplemented with KCL to 1M final conc.
Purified NI and IC were used at equimolar conc. to 1% (v/v) dialyzed Savinase, at […] concentration each. (NI+IC) premix in 2M KCl was prepared as described in Example 7, and formulations were made to 65% detergents supplemented with KCl to 1M final conc.
Detergent formulations were stored under accelerated ageing conditions at 37° C. Residual protease activities were assayed at five time points, at t=0, 1, 2, 3, and 4 weeks, in serial dilutions to assay buffer as described before. The 2 min reads of 1:2560-fold dilutions of each formulation was normalized to the t=0 as 100% and graphed. […]

[4] = Stability of stain removal activity in three detergents under accelerated ageing; conditions: 37° C., up to 4 weeks, normalized to t=0
Procedure: Formulations made for Example 15 were stored under accelerated ageing conditions at 37° C., and were evaluated for stain removal activity at five time points, at t=0, 1, 2, 3, and 4 weeks in storage.
The blood/milk/ink stained fabric of EMPA 117 was used in wash tests as described in Example 15. FIG. 17 illustrates stain removal stability under accelerated ageing conditions in three detergents. Three replicate washes were performed from each formulation at each time point. Referring to this figure, white light reflectance of the washed EMPA117 fabrics were normalized to their corresponding t=0 samples and were graphed.

[5] = Suppression of protease activity in Detergent-1 formulations; format: biochemical; conditions: formulations in Detergent-1

Row | Molecule | boost of dilution inducible iProtease activity by supplementing the detergent [1] | effect of 1M KCl on protease activity [2] | loss of initial enzyme activity [3] | stain removal activity after storage [4] | effect of Detergent-1 on protease activity [5]
1 | [Cl-].[K+] [KCl, potassium chloride] | approximately 3 fold | – | – | – | –
2 | Savinase: extracellular alkaline protease from Bacillus lentus (Uniprot P29600), SEQ ID NO: 6; Novozymes stock, intein unmodified reference enzyme (protein, listed as Bacillus lentus, (1)..(380) Savinase P29600) MKKPLGKIVASTALLISVAFSSSIASAAEEAKEKYLIGFNEQEAVSEFVEQVEANDEVAILSEEEEVEIELLHEFETIPVLSVELSPEDVDALELDPAISYIEEDAEVTTMAQSVPWGISRVQAPAAHNRGLTGSGVKVAVLDTGISTHPDLNIRGGASFVPGEPSTQDGNGHGTHVAGTIAALNNSIGVLGVAPSAELYAVKVLGASGSGSVSSIAQGLEWAGNNGMHVANLSLGSPSPSATLEQAVNSATSRGVLVVAASGNSGAGSISYPARYANAMAVGATDQNNNRASFSQYGAGLDIVAPGVNVQSTYPGSTYASLNGTSMATPHVAGAAALVKQKNPSWSNVQIRNHLKNTATSLGSTNLYGSGLVNAEAATR | – | did not inhibit protease activity | 25-70% | full stain removal activity | did not suppress
